The source of these data is patent US20160152957A1, “Methods of Producing 6-Carbon Monomers From 8-Carbon Compounds” (INVISTA North America S.á.r.l., priority 2014, published 2016).

Holding throughout (type): biochemical
Series [1] can be described thus: ω-transaminase enzyme activity assay, forward direction (adipate semialdehyde to 6-aminohexanoate). The following applies: cell free extract, 10 mM adipate semialdehyde, 10 mM L-alanine, pH 7.5, 25° C., 4 h, RP-HPLC, against the empty vector control. As for the experimental part:
(§1) A nucleotide sequence encoding a His-tag was added to the nucleic acid sequences from Chromobacterium violaceum, Pseudomonas aeruginosa, Pseudomonas syringae, Rhodobacter sphaeroides, and Vibrio fluvialis encoding the ω-transaminases of SEQ ID NOs: 7, 8, 9, 10 and 12, respectively (see FIG. 6) such that N-terminal HIS tagged ω-transaminases could be produced. Each of the resulting modified genes was cloned into a pET21a expression vector under control of the T7 promoter and each expression vector was transformed into a BL21[DE3] E. coli host. The resulting recombinant E. coli strains were cultivated at 37° C. in a 250 mL shake flask culture containing 50 mL LB media and antibiotic selection pressure, with shaking at 230 rpm. Each culture was induced overnight at 16° C. using 1 mM IPTG.
(§2) The pellet from each induced shake flask culture was harvested via centrifugation. Each pellet was resuspended and lysed via sonication. The cell debris was separated from the supernatant via centrifugation and the cell free extract was used immediately in enzyme activity assays.
Enzyme activity in the forward direction (i.e., adipate semialdehyde to 6-aminohexanoate) was confirmed for the transaminases of SEQ ID NO 7, SEQ ID NO 8, SEQ ID NO 9, SEQ ID NO 10 and SEQ ID NO 12. Enzyme activity assays were performed in a buffer composed of a final concentration of 50 mM HEPES buffer (pH=7.5), 10 mM adipate semialdehyde, 10 mM L-alanine and 100 μM pyridoxyl 5′ phosphate. Each enzyme activity assay reaction was initiated by adding a cell free extract of the ω-transaminase gene product or the empty vector control to the assay buffer containing the adipate semialdehyde and incubated at 25° C. for 4 h, with shaking at 250 rpm. The formation of pyruvate was quantified via RP-HPLC.

Series [2] can be described thus: ω-transaminase enzyme activity assay, reverse direction (6-aminohexanoate to adipate semialdehyde). The following applies: cell free extract, 10 mM 6-aminohexanoate, 10 mM pyruvate, pH 7.5, 25° C., 24 h, RP-HPLC, against the empty vector control. As for the experimental part:
as §1, §2
Enzyme activity assays in the reverse direction (i.e., 6-aminohexanoate to adipate semialdehyde) were performed in a buffer composed of a final concentration of 50 mM HEPES buffer (pH=7.5), 10 mM 6-aminohexanoate, 10 mM pyruvate and 100 μM pyridoxyl 5′ phosphate. Each enzyme activity assay reaction was initiated by adding cell free extract of the ω-transaminase gene product or the empty vector control to the assay buffer containing the 6-aminohexanoate and incubated at 25° C. for 24 h, with shaking at 250 rpm. The formation of L-alanine from pyruvate was quantified via RP-HPLC.

A short description of series [3]: carboxylate reductase enzyme activity assay (adipate semialdehyde to hexanedial). Particulars: purified enzyme enhanced by the gene product of sfp, 2 mM adipate semialdehyde, pH 7.5, room temperature, 20 min, against the empty vector control. How it is done:
The N-terminal His-tagged carboxylate reductase of SEQ ID NO 6 (see Example 2 and FIG. 6) was assayed using adipate semialdehyde as substrate. The enzyme activity assay was performed in triplicate in a buffer composed of a final concentration of 50 mM HEPES buffer (pH=7.5), 2 mM adipate semialdehyde, 10 mM MgCl2, 1 mM ATP and 1 mM NADPH. The enzyme activity assay reaction was initiated by adding purified carboxylate reductase and phosphopantetheine transferase or the empty vector control to the assay buffer containing the adipate semialdehyde and then incubated at room temperature for 20 min. The consumption of NADPH was monitored by absorbance at 340 nm.

In the case of “SEQ ID NO 10: Rhodobacter sphaeroides ω-transaminase, Genbank Accession No. ABA81135.1, N-terminal HIS tagged”, the “ω-transaminase activity for converting adipate semialdehyde to 6-aminohexanoate (formation of pyruvate from L-alanine)” value in series [1] was “accepted adipate semialdehyde as substrate”. The “ω-transaminase activity for converting 6-aminohexanoate to adipate semialdehyde (formation of L-alanine from pyruvate)” value in series [2] was “accepted 6-aminohexanoate as substrate”.

B1: SEQ ID NO 9: Pseudomonas syringae ω-transaminase, Genbank Accession No. AAY39893.1, N-terminal HIS tagged (protein, listed as Pseudomonas syringae)
chain: MSANNPQTLEWQALSSEHHLAPFSDYKQLKEKGPRIITRAEGVYLWDSEGNKILDGMSGLWCVAIGYGREELADAASKQMRELPYYNLFFQTAHPPVLELAKAISDIAPEGMNHVFFTGSGSEGNDTMLRMVRHYWALKGQPNKKTIISRVNGYHGSTVAGASLGGMTYMHEQGDLPIPGVVHIPQPYWFGEGGDMTPDEFGIWAAEQLEKKILELGVENVGAFIAEPIQGAGGVIVPPDSYWPKIKEILSRYDILFAADEVICGFGRTSEWFGSDFYGLRPDMMTIAKGLTSGYVPMGGLIVRDEIVAVLNEGGDFNHGFTYSGHPVAAAVALENIRILREEKIVERVRSETAPYLQKRLRELSDHPLVGEVRGVGLLGAIELVKDKTTRERYTDKGAGMICRTFCFDNGLIMRAVGDTMIIAPPLVISFAQIDELVEKARTCLDLTLAVLQG
modifications: N-terminal His tag
On to B1, for which the “ω-transaminase activity for converting adipate semialdehyde to 6-aminohexanoate (formation of pyruvate from L-alanine)” value in series [1] is given as “accepted adipate semialdehyde as substrate”. Moreover, in series [2], the “ω-transaminase activity for converting 6-aminohexanoate to adipate semialdehyde (formation of L-alanine from pyruvate)” value is listed as “accepted 6-aminohexanoate as substrate”.

B2: SEQ ID NO 8: Pseudomonas aeruginosa ω-transaminase, Genbank Accession No. AAG08191.1, N-terminal HIS tagged (protein, listed as Pseudomonas aeruginosa)
chain: MNARLHATSPLGDADLVRADQAHYMHGYHVFDDHRVNGSLNIAAGDGAYIYDTAGNRYLDAVGGMWCTNIGLGREEMARTVAEQTRLLAYSNPFCDMANPRAIELCRKLAELAPGDLDHVFLTTGGSTAVDTAIRLMHYYQNCRGKRAKKHVITRINAYHGSTFLGMSLGGKSADRPAEFDFLDERIHHLACPYYYRAPEGLGEAEFLDGLVDEFERKILELGADRVGAFISEPVFGSGGVIVPPAGYHRRMWELCQRYDVLYISDEVVTSFGRLGHFFASQAVFGVQPDIILTAKGLTSGYQPLGACIFSRRIWEVIAEPDKGRCFSHGFTYSGHPVACAAALKNIEIIEREGLLAHADEVGRYFEERLQSLRDLPIVGDVRGMRFMACVEFVADKASKALFPESLNIGEWVHLRAQKRGLLVRPIVHLNVMSPPLILTREQVDTVVRVLRESIEETVEDLVRAGHR
modifications: N-terminal His tag
With B2, the “ω-transaminase activity for converting adipate semialdehyde to 6-aminohexanoate (formation of pyruvate from L-alanine)” value in series [1] is reported as “accepted adipate semialdehyde as substrate”.

B3: SEQ ID NO 12: Vibrio fluvialis ω-transaminase, Genbank Accession No. AEA39183.1, N-terminal HIS tagged (protein, listed as Vibrio fluvialis)
chain: MNKPQSWEARAETYSLYGFTDMPSLHQRGTVVVTHGEGPYIVDVNGRRYLDANSGLWNMVAGFDHKGLIDAAKAQYERFPGYHAFFGRMSDQTVMLSEKLVEVSPFDSGRVFYTNSGSEANDTMVKMLWFLHAAEGKPQKRKILTRWNAYHGVTAVSASMTGKPYNSVFGLPLPGFVHLTCPHYWRYGEEGETEEQFVARLARELEETIQREGADTIAGFFAEPVMGAGGVIPPAKGYFQAILPILRKYDIPVISDEVICGFGRTGNTWGCVTYDFTPDAIISSKNLTAGFFPMGAVILGPELSKRLETAIEAIEEFPHGFTASGHPVGCAIALKAIDVVMNEGLAENVRRLAPRFEERLKHIAERPNIGEYRGIGFMWALEAVKDKASKTPFDGNLSVSERIANTCTDLGLICRPLGQSVVLCPPFILTEAQMDEMFDKLEKALDKVFAEVA
modifications: N-terminal His tag
Consider B3, for which, in series [1], the “ω-transaminase activity for converting adipate semialdehyde to 6-aminohexanoate (formation of pyruvate from L-alanine)” value was “accepted adipate semialdehyde as substrate”. Moreover, the “ω-transaminase activity for converting 6-aminohexanoate to adipate semialdehyde (formation of L-alanine from pyruvate)” value in series [2] is on record as “accepted 6-aminohexanoate as substrate”.

B4: SEQ ID NO 7: Chromobacterium violaceum ω-transaminase, Genbank Accession No. AAQ59697.1, N-terminal HIS tagged (protein, listed as Chromobacterium violaceum)
chain: MQKQRTTSQWRELDAAHHLHPFTDTASLNQAGARVMTRGEGVYLWDSEGNKIIDGMAGLWCVNVGYGRKDFAEAARRQMEELPFYNTFFKTTHPAVVELSSLLAEVTPAGFDRVFYTNSGSESVDTMIRMVRRYWDVQGKPEKKTLIGRWNGYHGSTIGGASLGGMKYMHEQGDLPIPGMAHIEQPWWYKHGKDMTPDEFGVVAARWLEEKILEIGADKVAAFVGEPIQGAGGVIVPPATYWPEIERICRKYDVLLVADEVICGFGRTGEWFGHQHFGFQPDLFTAAKGLSSGYLPIGAVFVGKRVAEGLIAGGDFNHGFTYSGHPVCAAVAHANVAALRDEGIVQRVKDDIGPYMQKRWRETFSRFEHVDDVRGVGMVQAFTLVKNKAKRELFPDFGEIGTLCRDIFFRNNLIMRACGDHIVSAPPLVMTRAEVDEMLAVAERCLEEFEQTLKARGLA
modifications: N-terminal His tag
As to B4, the “ω-transaminase activity for converting adipate semialdehyde to 6-aminohexanoate (formation of pyruvate from L-alanine)” value in series [1] was “accepted adipate semialdehyde as substrate”. The “ω-transaminase activity for converting 6-aminohexanoate to adipate semialdehyde (formation of L-alanine from pyruvate)” value in series [2] is “accepted 6-aminohexanoate as substrate”.

B5: SEQ ID NO 6: Segniliparus rotundus carboxylate reductase, Genbank Accession No. ADG98140.1, N-terminal HIS tagged (protein, listed as Segniliparus rotundus)
chain: MTQSHTQGPQASAAHSRLARRAAELLATDPQAAATLPDPEVVRQATRPGLRLAERVDAILSGYADRPALGQRSFQTVKDPITGRSSVELLPTFDTITYRELRERATAIASDLAHHPQAPAKPGDFLASIGFISVDYVAIDIAGVFAGLTAVPLQTGATLATLTAITAETAPTLFAASIEHLPTAVDAVLATPSVRRLLVFDYRAGSDEDREAVEAAKRKIADAGSSVLVDVLDEVIARGKSAPKAPLPPATDAGDDSLSLLIYTSGSTGTPKGAMYPERNVAHFWGGVWAAAFDEDAAPPVPAINITFLPLSHVASRLSLMPTLARGGLMHFVAKSDLSTLFEDLKLARPTNLFLVPRVVEMLYQHYQSELDRRGVQDGTREAEAVKDDLRTGLLGGRILTAGFGSAPLSAELAGFIESLLQIHLVDGYGSTEAGPVWRDGYLVKPPVTDYKLIDVPELGYFSTDSPHPRGELAIKTQTILPGYYKRPETTAEVFDEDGFYLTGDVVAQIGPEQFAYVDRRKNVLKLSQGEFVTLAKLEAAYSSSPLVRQLFVYGSSERSYLLAVIVPTPDALKKFGVGEAAKAALGESLQKIARDEGLQSYEVPRDFIIETDPFTVENGLLSDARKSLRPKLKEHYGERLEAMYKELADGQANELRDIRRGVQQRPTLETVRRAAAAMLGASAAEIKPDAHFTDLGGDSLSALTFSNFLHDLFEVDVPVGVIVSAANTLGSVAEHIDAQLAGGRARPTFATVHGKGSTTIKASDLTLDKFIDEQTLEAAKHLPKPADPPRTVLLTGANGWLGRFLALEWLERLAPAGGKLITIVRGKDAAQAKARLDAAYESGDPKLAGHYQDLAATTLEVLAGDFSEPRLGLDEATWNRLADEVDFISHPGALVNHVLPYNQLFGPNVAGVAEIIKLAITTRIKPVTYLSTVAVAAGVEPSALDEDGDIRTVSAERSVDEGYANGYGNSKWGGEVLLREAHDRTGLPVRVFRSDMILAHQKYTGQVNATDQFTRLVQSLLATGLAPKSFYELDAQGNRQRAHYDGIPVDFTAESITTLGGDGLEGYRSYNVFNPHRDGVGLDEFVDWLIEAGHPITRIDDYDQWLSRFETSLRGLPESKRQASVLPLLHAFARPGPAVDGSPFRNTVFRTDVQKAKIGAEHDIPHLGKALVLKYADDIKQLGLL
modifications: N-terminal His tag
With B5, the “carboxylate reductase activity for converting adipate semialdehyde to hexanedial (consumption of NADPH, absorbance at 340 nm)” value in series [3] is given as “accepted adipate semialdehyde as substrate”.
